Results published in IntAct's records for PubMed 22797597.

B1: TRAF2 and NCK-interacting protein kinase (Homo sapiens), Q9UKE5 (parent)
chain: MASDSPARSLDEIDLSALRDPAGIFELVELVGNGTYGQVYKGRHVKTGQLAAIKVMDVTGDEEEEIKQEINMLKKYSHHRNIATYYGAFIKKNPPGMDDQLWLVMEFCGAGSVTDLIKNTKGNTLKEEWIAYICREILRGLSHLHQHKVIHRDIKGQNVLLTENAEVKLVDFGVSAQLDRTVGRRNTFIGTPYWMAPEVIACDENPDATYDFKSDLWSLGITAIEMAEGAPPLCDMHPMRALFLIPRNPAPRLKSKKWSKKFQSFIESCLVKNHSQRPATEQLMKHPFIRDQPNERQVRIQLKDHIDRTKKKRGEKDETEYEYSGSEEEEEENDSGEPSSILNLPGESTLRRDFLRLQLANKERSEALRRQQLEQQQRENEEHKRQLLAERQKRIEEQKEQRRRLEEQQRREKELRKQQEREQRRHYEEQMRREEERRRAEHEQEYIRRQLEEEQRQLEILQQQLLHEQALLLEYKRKQLEEQRQAERLQRQLKQERDYLVSLQHQRQEQRPVEKKPLYHYKEGMSPSEKPAWAKEVEERSRLNRQSSPAMPHKVANRISDPNLPPRSESFSISGVQPARTPPMLRPVDPQIPHLVAVKSQGPALTASQSVHEQPTKGLSGFQEALNVTSHRVEMPRQNSDPTSENPPLPTRIEKFDRSSWLRQEEDIPPKVPQRTTSISPALARKNSPGNGSALGPRLGSQPIRASNPDLRRTEPILESPLQRTSSGSSSSSSTPSSQPSSQGGSQPGSQAGSSERTRVRANSKSEGSPVLPHEPAKVKPEESRDITRPSRPASYKKAIDEDLTALAKELRELRIEETNRPMKKVTDYSSSSEESESSEEEEEDGESETHDGTVAVSDIPRLIPTGAPGSNEQYNVGMVGTHGLETSHADSFSGSISREGTLMIRETSGEKKRSGHSDSNGFAGHINLPDLVQQSHSPAGTPTEGLGRVSTHSQEMDSGTEYGMGSSTKASFTPFVDPRVYQTSPTDEDEEDEESSAAALFTSELLRQEQAKLNEARKISVVNVNPTNIRPHSDTPEIRKYKKRFNSEILCAALWGVNLLVGTENGLMLLDRSGQGKVYNLINRRRFQQMDVLEGLNVLVTISGKKNKLRVYYLSWLRNRILHNDPEVEKKQGWITVGDLEGCIHYKVVKYERIKFLVIALKNAVEIYAWAPKPYHKFMAFKSFADLQHKPLLVDLTVEEGQRLKVIFGSHTGFHVIDVDSGNSYDIYIPSHIQGNITPHAIVILPKTDGMEMLVCYEDEGVYVNTYGRITKDVVLQWGEMPTSVAYIHSNQIMGWGEKAIEIRSVETGHLDGVFMHKRAQRLKFLCERNDKVFFASVRSGGSSQVFFMTLNRNSMMNW

Variants of: B1
Conditions: with STK26, Q9P289-1
Chain of STK26, Q9P289-1 (Q9P289 whole entry, looked up): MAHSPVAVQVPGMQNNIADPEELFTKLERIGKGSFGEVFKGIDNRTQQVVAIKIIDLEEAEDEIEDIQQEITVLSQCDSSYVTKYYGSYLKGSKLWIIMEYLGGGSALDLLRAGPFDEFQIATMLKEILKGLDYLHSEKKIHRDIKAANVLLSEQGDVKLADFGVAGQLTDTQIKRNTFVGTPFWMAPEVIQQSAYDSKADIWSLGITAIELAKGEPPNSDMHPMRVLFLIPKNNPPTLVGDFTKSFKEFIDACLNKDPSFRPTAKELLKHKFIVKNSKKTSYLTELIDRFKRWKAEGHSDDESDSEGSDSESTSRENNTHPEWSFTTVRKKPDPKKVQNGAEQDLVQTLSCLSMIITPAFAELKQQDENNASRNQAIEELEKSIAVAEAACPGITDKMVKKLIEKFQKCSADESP

effect of a mutation on the interaction | Variant
increasing interaction strength | K54A
increasing interaction strength | R152A;D153A
